Consider one molecule from paper doi:10.1101/2020.04.09.012385.

This data set addresses mouse DLX2 (Mus musculus, UniProt P40764 1-332). As to the kind of experiment: EMSA.

Chain of mouse DLX2 (P40764 whole entry): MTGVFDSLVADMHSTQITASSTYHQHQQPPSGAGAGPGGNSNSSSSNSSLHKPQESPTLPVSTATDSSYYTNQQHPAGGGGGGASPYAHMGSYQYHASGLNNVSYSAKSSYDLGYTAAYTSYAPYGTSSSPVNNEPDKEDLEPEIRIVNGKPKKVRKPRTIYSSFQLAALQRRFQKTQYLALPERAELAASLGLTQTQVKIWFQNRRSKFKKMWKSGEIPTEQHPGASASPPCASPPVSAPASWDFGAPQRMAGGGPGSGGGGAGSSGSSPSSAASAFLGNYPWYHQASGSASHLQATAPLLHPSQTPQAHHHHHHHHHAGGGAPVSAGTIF

B1: mR6ii (dsDNA)
DNA 1: GATCCCGCCCCAATAGGTACTAATGACTGCCTGGGTGTCTACACTCACCG
DNA 2: CGGTGAGTGTAGACACCCAGGCAGTCATTAGTACCTATTGGGGCGGGATC
On to B1, for which the binding result is reported as “no binding”.
